From article PMC10255477, “The Inhibitory Effects and Cytotoxic Activities of the Stem Extract of Nepenthes miranda against Single-Stranded DNA-Binding Protein and Oral Carcinoma Cells”

Columns and labels:
[1] = target: T1, KpSSB (single-stranded DNA-binding protein) (Klebsiella pneumoniae, UniProt A6TGW7 1-174); test: EMSA; EMSA: 40 mM Tris-HCl pH 7.5, 50 mM NaCl, 37 °C, 60 min; DNA 30 fmol/uL; 8% native PAGE in TBE; [Protein]50 by linear interpolation; conditions: protein: recombinant; chain copies: 4; label: 5' biotin
T1 sequence (A6TGW7 whole entry): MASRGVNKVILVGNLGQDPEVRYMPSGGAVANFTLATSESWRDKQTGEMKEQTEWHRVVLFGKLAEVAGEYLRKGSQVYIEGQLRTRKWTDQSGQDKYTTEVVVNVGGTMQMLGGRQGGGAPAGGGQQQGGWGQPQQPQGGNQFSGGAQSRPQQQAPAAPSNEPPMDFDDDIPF

[2] = target: T1, KpSSB (single-stranded DNA-binding …); test: EMSA; up to 5000 nM protein, no shift; EMSA: 40 mM Tris-HCl pH 7.5, 50 mM NaCl, 37 °C, 60 min; DNA 30 fmol/uL; 8% native PAGE in TBE; [Protein]50 by linear interpolation; conditions: protein: recombinant, chain copies: 4

Binder | apparent K (half saturation) [1] | also measured
TTTTTTTTTTTTTTTTTTTTTTTTTTTTTT (ssDNA) [dT30] | 155 ± 20 nM | 
PS4/PS3 (dsDNA) DNA 1: GGGTACCGAGCTATCCGAATTCGGG DNA 2: CCCGAATTCGGATAGCTCGGTACCC |  | binding result ([2]; blunt, 25 bp): no binding
TTTTTTTTTTTTTTTTTTTT (ssDNA) [dT20] |  | binding result ([2]; label: 5' biotin): no binding
TTTTTTTTTTTTTTTTTTTTTTTTTTTTTTTTTTT (ssDNA) [dT35] | 117 ± 18 nM | 
